Target: T1, T-box 5 (TBX5) (Homo sapiens, UniProt Q99593 1-518)
T1 sequence: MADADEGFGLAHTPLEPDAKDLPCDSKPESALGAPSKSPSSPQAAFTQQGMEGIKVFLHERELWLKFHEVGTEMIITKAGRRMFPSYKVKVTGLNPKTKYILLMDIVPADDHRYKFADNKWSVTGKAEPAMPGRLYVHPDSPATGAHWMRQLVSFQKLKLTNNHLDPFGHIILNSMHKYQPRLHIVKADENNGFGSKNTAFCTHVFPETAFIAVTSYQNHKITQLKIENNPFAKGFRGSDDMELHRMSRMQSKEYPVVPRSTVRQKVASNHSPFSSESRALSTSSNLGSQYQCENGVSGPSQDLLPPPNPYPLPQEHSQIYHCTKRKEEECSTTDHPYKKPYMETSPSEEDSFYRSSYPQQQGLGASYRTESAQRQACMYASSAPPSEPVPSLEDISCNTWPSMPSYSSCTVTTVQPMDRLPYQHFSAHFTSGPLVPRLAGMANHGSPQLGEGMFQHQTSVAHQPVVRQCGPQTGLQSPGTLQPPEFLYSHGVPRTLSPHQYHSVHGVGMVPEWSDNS
Assay: EMSA

B1: CAGA (rs116461237 G>A) (dsDNA)
DNA 1: GCCCACCTCGGCCTCCCAAAGTTCTAGGATTACAGATGTGAGCTACC
DNA 2: GGTAGCTCACATCTGTAATCCTAGAACTTTGGGAGGCCGAGGTGGGGC
binding result: no binding
